Measured values reported in paper PMC3812847.

Target: T1, C-RapL (purified domain) (human)
T1 sequence (Q8WWW0 whole entry, looked up): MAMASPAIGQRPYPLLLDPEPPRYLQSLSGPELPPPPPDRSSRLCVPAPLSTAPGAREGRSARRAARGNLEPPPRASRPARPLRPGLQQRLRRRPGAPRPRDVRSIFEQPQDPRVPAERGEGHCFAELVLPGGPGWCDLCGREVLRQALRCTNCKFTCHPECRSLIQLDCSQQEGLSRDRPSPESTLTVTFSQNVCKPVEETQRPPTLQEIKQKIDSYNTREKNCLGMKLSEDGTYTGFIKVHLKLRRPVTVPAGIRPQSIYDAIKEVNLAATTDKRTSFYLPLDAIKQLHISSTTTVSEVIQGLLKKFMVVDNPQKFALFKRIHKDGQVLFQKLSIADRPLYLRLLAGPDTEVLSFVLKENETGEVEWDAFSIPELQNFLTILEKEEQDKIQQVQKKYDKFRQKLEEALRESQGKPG
Experiment: ITC

Kd: 0.6 µM
dH: -9.62 kJ/mol
stoichiometry N: 0.85
B1: N-SKAP1 (purified domain) (domain or fragment)
chain: MQAAALPEEIRWLLEDAEEFLAEGLRNENLSAVARDHRDHILRGFQQIKARYYWDFQPQGGDIGQDSSDDNHSGTLGLSLTSDAPFLSDYQDEGMEDIVKGAQE
